For three substances, stoichiometry N and Kd results are on record in publication doi:10.1101/2025.09.04.674342, “Tandem association of CLOCK:BMAL1 complexes on DNA enables recruitment of CBP/p300 through multivalent interactions” (bioRxiv, 2025).

Experiment [1] has as its target human histone octamer in the nucleosome core particle (Widom 601 DNA with tandem E-boxes) (human) (UniProt P04908). In words: mass photometry; NCP tandem 6bp 10 nM with CLOCK:BMAL1 bHLH-PAS-AB 60 nM (1:6), 30 min at room temperature; 20 mM Tris-HCl pH 7.5, 100 mM KCl, 0.5 mM TCEP.
The target of experiment [2] is BMAL1 TAD L606A/L607A (residues 579–626) (mouse) (UniProt Q9WTL8). In words: NMR titration; 15N-1H HSQC of 100 μM 15N BMAL1 TAD WT or L606A/L607A with stepwise additions of CBP KIX (WT or 3mut), TAZ1 or TAZ2; 25°C; 10 mM MES pH 6.5, 50 mM NaCl, 10% D2O; KD from fits of concentration-dependent CSPs, apparent.
Chain of BMAL1 TAD L606A/L607A (residues 579–626) (mouse) (Q9WTL8 585-632 L612A/L613A): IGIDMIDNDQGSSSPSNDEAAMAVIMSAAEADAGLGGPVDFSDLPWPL
Experiment [3] concerns the target BMAL1 TAD (residues 579–626) (mouse) (UniProt Q9WTL8). Described as above.

In general, stoichiometry N refers to a count of units in the complex or per binding partner.

Several values for one entry are separate records, joined by “and”; a condition that tells them apart may be missing. Identical values can stand only once.

Chain of BMAL1 TAD (residues 579–626) (mouse) (Q9WTL8 585-632): as the sequence (Q9WTL8 585-632 L612A/L613A) above, with A28L, A29L counted along it

Consider “CLOCK:BMAL1 bHLH-PAS-AB heterodimer (from UniProt O08785 26-395; Q9WTL8-4 62-441) (complex)”, for which the stoichiometry N in experiment [1] is 2 and 3.

In the case of “CBP KIX domain (residues 586–672) (from UniProt P45481 586-672) (domain or fragment)”, the Kd in experiment [2] was 190 µM.

As for “CBP KIX Y650A/A654Q/Y658A (3mut) (from UniProt P45481 586-672) (domain or fragment)”, the Kd in experiment [3] was determined as 160 µM.
